# Results from US20070093443.
# B1: modified MT-SP1 CB155 (Y146D/K224F) protease domain (protein)
# chain: VVGGTDADEGEWPWQVSLHALGQGHICGASLISPNWLVSAAHCYIDDRGFRYSDPTQWTAFLGLHDQSQRSAPGVQERRLKRIISHPFFNDFTFDYDIALLELEKPAEYSSMVRPICLPDASHVFPAGKAIWVTGWGHTQDGGTGALILQKGEIRVINQTTCENLLPQQITPRMMCVGFLSGGVDSCQGDSGGPLSSVEADGRIFQAGVVSWGDGCAQRNFPGVYTRLPLFRDWIKENTGV
# B2: modified MT-SP1 CB331 (I41D/Y146D/K224L) protease domain (protein)
# chain: VVGGTDADEGEWPWQVSLHALGQGHDCGASLISPNWLVSAAHCYIDDRGFRYSDPTQWTAFLGLHDQSQRSAPGVQERRLKRIISHPFFNDFTFDYDIALLELEKPAEYSSMVRPICLPDASHVFPAGKAIWVTGWGHTQDGGTGALILQKGEIRVINQTTCENLLPQQITPRMMCVGFLSGGVDSCQGDSGGPLSSVEADGRIFQAGVVSWGDGCAQRNLPGVYTRLPLFRDWIKENTGV
# B3: modified MT-SP1 CB42 (Y146E) protease domain (protein)
# chain: VVGGTDADEGEWPWQVSLHALGQGHICGASLISPNWLVSAAHCYIDDRGFRYSDPTQWTAFLGLHDQSQRSAPGVQERRLKRIISHPFFNDWTFDYDIALLELEKPAEYSSMVRPICLPDASHVFPAGKAIWVTGWGHTQEGGTGALILQKGEIRVINQTTCENLLPQQITPRMMCVGFLSGGVDSCQGDSGGPLSSVEADGRIFQAGVVSWGDGCAQRNKPGVYTRLPLFRDWIKENTGV
# B4: modified MT-SP1 CB387 (Y146D/Q175W/K224L) protease domain (protein)
# chain: VVGGTDADEGEWPWQVSLHALGQGHICGASLISPNWLVSAAHCYIDDRGFRYSDPTQWTAFLGLHDQSQRSAPGVQERRLKRIISHPFFNDFTFDYDIALLELEKPAEYSSMVRPICLPDASHVFPAGKAIWVTGWGHTQDGGTGALILQKGEIRVINQTTCENLLPQWITPRMMCVGFLSGGVDSCQGDSGGPLSSVEADGRIFQAGVVSWGDGCAQRNLPGVYTRLPLFRDWIKENTGV
# B5: modified MT-SP1 CB349 (I41D/Y146D/K224F) protease domain (protein)
# chain: VVGGTDADEGEWPWQVSLHALGQGHDCGASLISPNWLVSAAHCYIDDRGFRYSDPTQWTAFLGLHDQSQRSAPGVQERRLKRIISHPFFNDFTFDYDIALLELEKPAEYSSMVRPICLPDASHVFPAGKAIWVTGWGHTQDGGTGALILQKGEIRVINQTTCENLLPQQITPRMMCVGFLSGGVDSCQGDSGGPLSSVEADGRIFQAGVVSWGDGCAQRNFPGVYTRLPLFRDWIKENTGV
# Columns and labels:
# Ac-RQAR-AMC = molecular target: T1, Ac-RQAR-AMC
# T1 chain: RQAR
# Complement C4 (human) = molecular target: T2, Complement C4 (human)
# T2 chain 1: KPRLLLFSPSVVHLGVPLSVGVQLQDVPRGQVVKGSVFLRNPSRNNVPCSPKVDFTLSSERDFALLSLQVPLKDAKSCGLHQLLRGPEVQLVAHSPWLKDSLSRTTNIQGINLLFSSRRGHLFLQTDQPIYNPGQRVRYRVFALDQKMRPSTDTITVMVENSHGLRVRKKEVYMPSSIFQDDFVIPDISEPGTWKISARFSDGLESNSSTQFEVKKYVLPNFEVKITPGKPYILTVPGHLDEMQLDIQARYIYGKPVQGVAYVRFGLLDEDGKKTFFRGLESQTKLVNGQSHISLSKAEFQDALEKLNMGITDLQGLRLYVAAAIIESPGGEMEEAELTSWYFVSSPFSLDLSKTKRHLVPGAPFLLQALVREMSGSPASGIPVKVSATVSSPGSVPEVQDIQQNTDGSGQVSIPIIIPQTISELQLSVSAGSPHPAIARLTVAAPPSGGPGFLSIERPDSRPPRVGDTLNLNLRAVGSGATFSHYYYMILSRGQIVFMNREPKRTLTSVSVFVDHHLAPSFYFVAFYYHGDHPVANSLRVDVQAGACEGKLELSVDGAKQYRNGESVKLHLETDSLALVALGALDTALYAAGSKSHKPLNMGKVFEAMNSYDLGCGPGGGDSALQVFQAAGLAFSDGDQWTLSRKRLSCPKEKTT
# T2 chain 2: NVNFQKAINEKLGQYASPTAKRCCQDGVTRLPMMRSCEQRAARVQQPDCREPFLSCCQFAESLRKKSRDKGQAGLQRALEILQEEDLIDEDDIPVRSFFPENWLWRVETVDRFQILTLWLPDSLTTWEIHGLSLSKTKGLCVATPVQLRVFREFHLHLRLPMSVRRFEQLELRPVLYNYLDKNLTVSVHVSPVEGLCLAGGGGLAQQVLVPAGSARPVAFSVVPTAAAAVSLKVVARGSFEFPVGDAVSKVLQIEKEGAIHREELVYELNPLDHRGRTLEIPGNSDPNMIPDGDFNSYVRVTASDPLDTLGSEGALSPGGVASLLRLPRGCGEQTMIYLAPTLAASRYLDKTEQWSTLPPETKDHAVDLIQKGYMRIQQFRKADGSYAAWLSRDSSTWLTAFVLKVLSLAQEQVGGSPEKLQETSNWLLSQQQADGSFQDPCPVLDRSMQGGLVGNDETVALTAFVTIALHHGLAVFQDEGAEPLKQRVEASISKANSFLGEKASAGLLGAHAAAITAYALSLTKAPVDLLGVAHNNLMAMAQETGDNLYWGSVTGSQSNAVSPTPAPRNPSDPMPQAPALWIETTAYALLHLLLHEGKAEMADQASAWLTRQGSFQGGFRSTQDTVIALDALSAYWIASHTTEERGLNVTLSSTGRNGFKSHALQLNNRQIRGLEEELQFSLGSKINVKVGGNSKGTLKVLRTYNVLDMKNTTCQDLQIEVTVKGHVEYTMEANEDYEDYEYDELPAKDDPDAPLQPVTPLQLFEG
# T2 chain 3: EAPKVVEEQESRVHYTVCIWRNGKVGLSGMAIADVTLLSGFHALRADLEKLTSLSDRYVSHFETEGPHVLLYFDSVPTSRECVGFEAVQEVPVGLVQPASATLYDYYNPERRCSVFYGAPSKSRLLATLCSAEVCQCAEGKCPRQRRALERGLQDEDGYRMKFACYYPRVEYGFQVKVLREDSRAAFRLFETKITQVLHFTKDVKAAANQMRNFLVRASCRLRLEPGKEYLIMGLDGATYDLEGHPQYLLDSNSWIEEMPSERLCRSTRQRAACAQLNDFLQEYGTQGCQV
# Ac-GLAR-AMC = molecular target: T3, Ac-GLAR-AMC
# T3 chain: GLAR
# Ac-SLGR-AMC = molecular target: T4, Ac-SLGR-AMC
# T4 chain: SLGR
# Complement C2 (human) = molecular target: T5, Complement C2 (human)
# T5 chain: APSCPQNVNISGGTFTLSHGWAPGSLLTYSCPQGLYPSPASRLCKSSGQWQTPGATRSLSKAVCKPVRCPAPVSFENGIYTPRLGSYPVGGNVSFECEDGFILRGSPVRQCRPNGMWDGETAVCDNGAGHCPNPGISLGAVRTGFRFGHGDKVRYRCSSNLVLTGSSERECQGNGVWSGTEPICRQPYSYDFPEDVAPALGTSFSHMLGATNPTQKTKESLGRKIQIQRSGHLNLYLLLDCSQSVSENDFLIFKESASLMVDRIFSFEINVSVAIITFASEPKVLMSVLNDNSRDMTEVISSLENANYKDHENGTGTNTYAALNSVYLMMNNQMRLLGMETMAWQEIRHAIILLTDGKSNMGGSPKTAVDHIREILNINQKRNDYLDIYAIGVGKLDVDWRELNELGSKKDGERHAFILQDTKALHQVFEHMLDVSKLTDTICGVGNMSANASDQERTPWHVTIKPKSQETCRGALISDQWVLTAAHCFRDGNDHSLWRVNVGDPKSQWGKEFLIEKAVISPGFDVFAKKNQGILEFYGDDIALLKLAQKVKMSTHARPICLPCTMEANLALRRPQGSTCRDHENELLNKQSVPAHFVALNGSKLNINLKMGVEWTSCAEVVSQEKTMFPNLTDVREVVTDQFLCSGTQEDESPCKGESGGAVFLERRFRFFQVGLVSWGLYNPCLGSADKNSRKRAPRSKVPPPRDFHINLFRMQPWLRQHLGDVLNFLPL
# Sequence of Complement C5 (human) (chain, as listed by the source, chain 1 of 2): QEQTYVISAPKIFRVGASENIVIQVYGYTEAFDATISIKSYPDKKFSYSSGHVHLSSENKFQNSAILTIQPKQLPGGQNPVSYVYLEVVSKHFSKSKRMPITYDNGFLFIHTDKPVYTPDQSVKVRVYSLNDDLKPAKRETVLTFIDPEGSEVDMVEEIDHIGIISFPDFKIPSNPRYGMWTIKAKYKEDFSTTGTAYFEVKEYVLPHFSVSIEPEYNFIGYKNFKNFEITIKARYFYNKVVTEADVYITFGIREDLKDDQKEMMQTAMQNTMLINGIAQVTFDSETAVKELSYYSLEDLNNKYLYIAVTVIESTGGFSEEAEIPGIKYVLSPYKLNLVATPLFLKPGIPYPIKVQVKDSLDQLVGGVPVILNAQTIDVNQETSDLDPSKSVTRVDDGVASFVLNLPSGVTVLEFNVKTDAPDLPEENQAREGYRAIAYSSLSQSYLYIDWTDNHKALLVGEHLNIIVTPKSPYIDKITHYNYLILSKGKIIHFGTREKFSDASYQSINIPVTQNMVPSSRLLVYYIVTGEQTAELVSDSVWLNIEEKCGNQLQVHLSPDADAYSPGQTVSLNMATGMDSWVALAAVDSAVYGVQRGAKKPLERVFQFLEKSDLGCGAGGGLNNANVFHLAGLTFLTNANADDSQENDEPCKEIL
# Sequence of Complement C5 (human) (chain, as listed by the source, chain 2 of 2): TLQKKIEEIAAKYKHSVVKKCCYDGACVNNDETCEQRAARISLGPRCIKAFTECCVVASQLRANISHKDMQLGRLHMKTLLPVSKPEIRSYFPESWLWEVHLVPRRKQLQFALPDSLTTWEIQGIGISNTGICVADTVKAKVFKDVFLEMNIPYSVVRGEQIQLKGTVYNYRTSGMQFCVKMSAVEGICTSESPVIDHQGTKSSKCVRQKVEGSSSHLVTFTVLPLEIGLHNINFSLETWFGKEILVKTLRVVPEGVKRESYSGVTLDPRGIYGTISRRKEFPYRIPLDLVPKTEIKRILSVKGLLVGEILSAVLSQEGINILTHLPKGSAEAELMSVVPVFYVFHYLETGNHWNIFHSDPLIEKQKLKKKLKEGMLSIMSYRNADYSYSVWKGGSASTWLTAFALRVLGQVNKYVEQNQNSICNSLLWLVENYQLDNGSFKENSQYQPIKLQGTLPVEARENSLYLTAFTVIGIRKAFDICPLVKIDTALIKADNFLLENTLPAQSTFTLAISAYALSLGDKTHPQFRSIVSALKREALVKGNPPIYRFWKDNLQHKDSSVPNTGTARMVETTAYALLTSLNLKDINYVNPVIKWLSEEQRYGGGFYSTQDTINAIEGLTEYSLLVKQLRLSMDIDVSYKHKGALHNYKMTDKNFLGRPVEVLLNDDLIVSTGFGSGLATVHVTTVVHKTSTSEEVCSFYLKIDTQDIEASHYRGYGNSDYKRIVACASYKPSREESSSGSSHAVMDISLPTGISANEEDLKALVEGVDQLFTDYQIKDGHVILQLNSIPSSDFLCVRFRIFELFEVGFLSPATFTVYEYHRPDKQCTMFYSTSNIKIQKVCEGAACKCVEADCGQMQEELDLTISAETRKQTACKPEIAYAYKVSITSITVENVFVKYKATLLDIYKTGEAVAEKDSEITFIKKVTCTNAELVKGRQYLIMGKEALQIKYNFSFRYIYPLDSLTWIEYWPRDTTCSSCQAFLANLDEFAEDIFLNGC
Protein,Fraction of Hemolysis (protease-incubated purified complement protein added back to depleted sera) (Complement C5 (human)),"kcat/Km (specificity constant), fluorogenic peptide cleavage (Ac-RQAR-AMC)",Fraction of Hemolysis (protease-incubated purified complement protein added back to depleted sera) (Complement C4 (human)),"kcat/Km (specificity constant), fluorogenic peptide cleavage (Ac-GLAR-AMC)","kcat/Km (specificity constant), fluorogenic peptide cleavage (Ac-SLGR-AMC)",Fraction of Hemolysis (protease-incubated purified complement protein added back to depleted sera) (Complement C3 (human)),Fraction of Hemolysis (protease-incubated purified complement protein added back to depleted sera) (Complement C2 (human)),"kcat/Km (specificity constant) of cleavage of full length C2, in gel kinetics (SDS-PAGE densitometry time course) (Complement C2 (human))",C3 Western blot of samples of the alternative hemolysis assay (human plasma) (Complement C3 (human))
B1,0.943,91000 M⁻¹ s⁻¹,0.944,3500 M⁻¹ s⁻¹,3700 M⁻¹ s⁻¹,0.072,-0.00104,72000 M⁻¹ s⁻¹,
B2,,,,,,,,,cleave C3 as assessed by decreased C3 product as compared to the no protease treated plasma sample
B3,1.02,1.8e+06 M⁻¹ s⁻¹,1.04,63000 M⁻¹ s⁻¹,59000 M⁻¹ s⁻¹,0.122,0.0714,36000 M⁻¹ s⁻¹,
B4,,,,,,,,,cleave C3 as assessed by decreased C3 product as compared to the no protease treated plasma sample
B5,,,,,,,,,cleave C3 as assessed by decreased C3 product as compared to the no protease treated plasma sample
